According to the nanobody polyreactivity screen of Harvey et al. (2022):

Assay: yeast display, Sf9 membrane polyspecificity reagent, FACS + sequencing; frameworks hold sequencing errors
How it was run: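 A synthetic nanobody library was expressed on Saccharomyces cerevisiae BJ5465 by galactose induction for 36–48 hours. The library was stained for 1 hour at 4 °C with 10% biotinylated, detergent-solubilized Sf9 membrane reagent and enriched with streptavidin microbeads before FACS. Low and high (top ~1%) gates were set on anti-HA fluorescence for expression and streptavidin fluorescence for reagent binding, and each polyreactivity label reflects the gate of origin.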

Row | Sequence | polyreactivity (PSR sort gate)
1 | QVQLVESGGGLVQAGGSLRLSCAASGFTFAYYAMGWDRQSPGNEREFVAAISSRGGSTYADSVKGRFTISRDNAKNTVYLQMNSLKPEDTAVYYCNAVVPRSRYFSWTYDYWGQGTQVTVSS | high polyreactivity
2 | QVQLVESGGGLVQAGGSLRLSCAASGFTFAYYAMGWYRPAPGKERELVATIRGGGSTNYADSVKGRFTISRDNAKNTVYLQMNSLKPEDTAVYYCAAGYVWYFDYFSAYYWGQGTQVTVSS | high polyreactivity
3 | QVQLVESGGGLVQAGGSLRLSCAASGFTFAYYAMGWYRQAPGKERELVAAISWTGGSTYYADSVKGRFTISRDNAKNTVYLQMNSLKPEDTAVYYCAARGYRYRSYDYWGQGTQVTVSS | high polyreactivity
4 | QVQLVESGGGLVQAGGSLRLSCAASGFTFAYYAMGWYRQAPGKERELVAAITGSGGRTYYADSVKGRFTISRDNAKNTVYLQMNSLKPEDTAVYYCAADRTVYYLSRTGYDYWGQGTQVTVSS | high polyreactivity
5 | QVQLVESGGGLVQAGGSLRLSCAASGFTFAYYAMGWYRQAPGKERELVAAITVSGASTYYADSVKGRFTISRDNAKNTVYLQMNSLKPEDTAVYYCNASSVSFYYLEPSQPMDYWGQGTQVTVSS | high polyreactivity
6 | QVQLVESGGGLVQAGGSLRLSCAASGFTFAYYDMGWYRQAPGKERELVAAITWDGGSTYYADSVKGRFTISRDNAKNTVYLQMNSLKPEDTAVYYCAAPSGPYGYDYWGQGTQVTVSS | high polyreactivity
7 | QVQLVESGGGLVQAGGSLRLSCAASGFTFCDYAKGWYRQATGKERELVAAISDNDGSTDYADSVKGRFTISRDNAKNTVYLQMTRLKPEDSAVYYCNAESELPSKEGDYWGLGTQVTVSS | low polyreactivity
8 | QVQLVESGGGLVQAGGSLRLSCAASGFTFDDYTMGWYRQAPGKEREFVAAISSSGGSTYYADSVKGRFTISRDNAKNTVYLQMNSLKPEDTAVYYCAADARYYDYYEYDYWGQGTQVTVSS | high polyreactivity
9 | QVQLVESGGGLVQAGGSLRLSCAASGFTFDFYAMGWYRQAPGKERELVATISYSGASTYYADSVKGRFTISRDNAKNTIYLQLNSLKPEDTAVYYCNAESSYYYGTAAYEYWGQGTQVTVSS | low polyreactivity
10 | QVQLVESGGGLVQAGGSLRLSCAASGFTFDFYAMGWYRQAPGKERELVAVISSSGRTYYADSVKGRFTISRDNAKNTVYLQMNSLKPEDTAVYYCAAKAKRGHTYDYWGQGTQVTVSS | high polyreactivity
11 | QVQLVESGGGLVQAGGSLRLSCAASGFTFDGYAMGWYRQAPGKERELVAAISDSGDSTYYADSVKGRFTISRDNAKNTVYLQMNSLKPEDTAVYYCNADAYGTPEFTSYAVRYDYWGQGTQVTVSS | low polyreactivity
12 | QVQLVESGGGLVQAGGSLRLSCAASGFTFDIYGMGWYRQAPGNERDLVASITSRSARTYYAYSVKGRFTISRDNAKNTVYLQMNSLKPEDTAVYYCAAYYWQCTYDSRRTGWRLMNYWGQGTQVTVSS | high polyreactivity
13 | QVQLVESGGGLVQAGGSLRLSCAASGFTFDKKVMGWYRLAPGKERELVAANSVRGGTTYYADSVKGRFTISRDYAKNTVYLQMNSLKPEDSAVYDCAARAYGPPARYESWGQGTQVTVSS | low polyreactivity
14 | QVQLVESGGGLVQAGGSLRLSCAASGFTFDPYAMGWYRQAPGKERELVAAIDYSGGTTYYADSVKGRFTISRDNAKNTVYLQMNSLKPEDTAVYYCAAEYTYYHWWGYDYWGQGTQVTVSS | high polyreactivity
15 | QVQLVESGGGLVQAGGSLRLSCAASGFTFDQYAMGWYRQAPGKEREFVAAINQSTGSTYYADSVKGRFTISRDNAKNTVYLQMISLKPEDTAVYYCAAEESSTSSEYDYWGQGTQVTVSS | low polyreactivity
16 | QVQLVESGGGLVQAGGSLRLSCAASGFTFDSNAMGWYRQAPGKERELVAAISASGDSTYYADSVKGRFTISRDNAKNTVYLQMNSLKPEDTAVYYCAADRFYGGWRFDHWGQGTQVTVSS | low polyreactivity
17 | QVQLVESGGGLVQAGGSLRLSCAASGFTFDSYDMGGYRQAPGKERVLVAAITWSGGSTYYADSVKGRFTISRDYAKNTVYLQMNSLKPEDTAVYYGNADTGTYWVPWYHDGYDYWGQGTQVTVSS | low polyreactivity
18 | QVQLVESGGGLVQAGGSLRLSCAASGFTFDTNAMGWYRQAPGKERELVAAISWGGDTTYYADSVKGRFTISRDNAKNTVYLQMNSLKTEDTAVYYCNVYWYDWWGYDYWGQGTQVTVSS | high polyreactivity
19 | QVQLVESGGGLVQAGGSLRLSCAASGFTFDTYAMGWSRQAPGKERELVAAISSSGGSTYYADSVKGRFTISRDNAKNTVYLQMNSLKPEDTAVYYCNAYYRYSRGYDYWGQGTQVTVSS | high polyreactivity
20 | QVQLVESGGGLVQAGGSLRLSCAASGFTFDTYAMGWYRQAPGKERELVAAISWGGGSTFYADSVKGRFTISRDNAKNTVYLQMNSLKPEDTAVYYCAAEIPGYYVFNYGYWYYEYDYWGQGTQVTVSS | high polyreactivity
21 | QVQLVESGGGLVQAGGSLRLSCAASGFTFDTYTMGWYRQAPGKERELVAAISSGGNTNYADSVKGRFTISRDNAKNTVYLQMNSLKPEDTAVYYCARGATLLQYSYWGVYEYDSWGQGTQVTVSS | low polyreactivity
22 | QVQLVESGGGLVQAGGSLRLSCAASGFTFDYNAMGWYRQAPGKEREFVAAISSNGGSTYYADSVKGRFTISRDNAKNTVYFQMNSLKPEDTAVYYCAARYRSFVYWYGYWGQGTQVTVSS | high polyreactivity

Row | Sequence | polyreactivity (PSR sort gate)
23 | QVQLVESGGGLVQAGGSLRLSCAASGFTFDYNGLGWYRQAPGKERELVAGIRWSGGSTYYADSVKGRFTISRDNAKNTVYLQMNSLKPEDTAVYYCATSQYGYRSWPGLYYWGQGTQVTVSS | low polyreactivity
24 | QVQLVESGGGLVQAGGSLRLSCAASGFTFDYYTMGWYRQAPGKEREFVAAITWNGGTTNYADSVKGRFTISRDNAKYTVYLQMNSLKPEDTAVYYCAATAYWYFSNDSGRSYDYWGQGTQVTVSS | low polyreactivity
25 | QVQLVESGGGLVQAGGSLRLSCAASGFTFEGNAMGWYRQAPGKEREFVAAITSNGGGTYYADSVKGRFTISRDNAKNTVYLQMNSLKPEDTAVYDCAATYWTWYSWYDYWGQGTQVTVSS | high polyreactivity
26 | QVQLVESGGGLVQAGGSLRLSCAASGFTFEIYAMGWYRQAPGKERELVAAITWSGGSTDYADSVKGRFTISRDNAKNSVYFQMNSLKPEDTAVYYCAAVTVQYVGYGYWGQGTQVTVSS | low polyreactivity
27 | QVQLVESGGGLVQAGGSLRLSCAASGFTFERYTMGWYIQAPGKERELVATISRRSGRTSYADSVKGRFTISRDNAKNTVYLQMNSLKPEDTEVYYCAVDYAYPDRYDYWGQGTQVTVSS | high polyreactivity
28 | QVQLVESGGGLVQAGGSLRLSCAASGFTFETNAMGWYRQEPGQERELVAAISYSGGSTYYADSVKGRFTISRDNAKNTVYLQMNSLKPEDNAVYYCNKYYRGIFKAHRDYWGQGTQVTVSS | low polyreactivity
29 | QVQLVESGGGLVQAGGSLRLSCAASGFTFEYYALGWYRPAPGKERELVAAITYSGGSTYYADSVKGRFTISRDNAKITVYLQLNSLKPEDTAVYYCATESPRYRLYQSAVYGYFYWGQGTQVTVSS | high polyreactivity
30 | QVQLVESGGGLVQAGGSLRLSCAASGFTFFDYVMGWYRQAPGKERELVAAISSSGGSTNYADSVKGRFTISRDNAKNTVYLQMNSLKPQDTAVYYCAAEDFWDDVEYWGQGTQVTVSS | low polyreactivity
31 | QVQLVESGGGLVQAGGSLRLSCAASGFTFFKYAMGGYRQAPGKERELVAAITRNGGRTYYADSVKGRFTISRDNAKNTVYLHMNSLKPEDTAVYYCNAASVNGGRDFDYWGQGTQVTVSS | high polyreactivity
32 | QVQLVESGGGLVQAGGSLRLSCAASGFTFFMYAMGGDRQAPGKEREFVASITGSGGSTYYADSVKGRFTISRDTAKNSVYLQMNSLKPEDTAVYYCNKLSYGRSGYWGQGTQVTVSS | high polyreactivity
33 | QVQLVESGGGLVQAGGSLRLSCAASGFTFFPNAMGWYRQAPGKERELVADITDGGSTNYADSVKGRFTISRDNAKNTVYLQLNSLKPEDTADYYCNADWYGWFGGYEYWGQGTQVTVSS | high polyreactivity
34 | QVQLVESGGGLVQAGGSLRLSCAASGFTFFQNHRGWYRQAPGTERELVADISYRGRRPYYADSVKGRFTISRDNAKNTVYLQMNCLKPVDTAVYYCARRSSKPSSIQYYYCGQGTQVTVSS | high polyreactivity
35 | QVQLVESGGGLVQAGGSLRLSCAASGFTFFRNAIGWYRQAPGKERELVAAISGSGGSTYYADSVKGRFTISRDNAKNTVYLQMNSLKPEDTAVYYCAARTSYYVYRHPSGRYDYWGQGTQVTVSS | low polyreactivity
36 | QVQLVESGGGLVQAGGSLRLSCAASGFTFFYNAMGRYRQAPGKEREFVAAISGRGGTTYYADSVKGRFTISRDNAKNTVYLEMNSLKPEDTAVYYCAARSVSTLRYTSCKLSDDYWGQGTQVTVSS | high polyreactivity
37 | QVQLVESGGGLVQAGGSLRLSCAASGFTFFYYAMGWYRQAPGKERELVASISWSGGSTYYADSVKGRFTISRDNAKNTVYLQMNSLKPEDTAVYYCAADVPFGGDYWGQGTQVTVSS | low polyreactivity
38 | QVQLVESGGGLVQAGGSLRLSCAASGFTFGANAMGWYRQAPGKERELVAAITKRGGNTYYADSVKGRFTISRDNAKNTVYLQMNSLKPEDTAVYYCARDYTHGYDYWGQGTQVTVSS | high polyreactivity
39 | QVQLVESGGGLVQAGGSLRLSCAASGFTFGANDMGWYRQAPGKERELVATISSSGGTTYYADSVKGRFTISRDNAKNTVYLQMNSLKPEDTAVYYCAAKGLFTGRVSRYADDHCGQGTQVTVSS | low polyreactivity
40 | QVQLVESGGGLVQAGGSLRLSCAASGFTFGANVMGWYRQAPGKERQLVAGITWSGDSTYYADSVKGRFTISRDNAKNTVYLQMNSLKPEDTAVYYCAADVYDGEYILDYDYWGQGTQVTVSS | low polyreactivity
41 | QVQLVESGGGLVQAGGSLRLSCAASGFTFGAYAMGWYRQAPGKERELVAAITWSGSSTYYADSVKGRFTISRDNAKNTVYLQMNSLKPEDTAVYYCNVQDKGYVSYYGGDSWGQGTQVTVSS | high polyreactivity
42 | QVQLVESGGGLVQAGGSLRLSCAASGFTFGAYAMGWYRQAPGKERELVASISWSGGSTYYADSVKGRFTISRDNAKNTVYLQLNSLKPEDTAVYYCNKDFVYPDDDGLFDYWGQGTQVTVSS | low polyreactivity
43 | QVQLVESGGGLVQAGGSLRLSCAASGFTFGDYAMGWYRQAPGIERELVAAIRSGGSTNYADSVKGRFTISRDNAKNTVYLQMNSLNPEDTAVYYCAAEWPHGQGAWSFFCRDSWGQGTQVTVSS | low polyreactivity
